Measured values published in the supplement of paper PMC7125110.
± gives the standard error. This sample holds only a part of the variants without activity.

B1: glmS ribozyme (parent)
chain: AUAAAAGCGCCAGAACUACAGAAAUGUAGUUGACGAGGAGGAGGUUUAUCGAAUUUUCGGCGGAUGCCUCCAAA

Experiments:
Conditions in all cases: with glucosamine-6-phosphate
glucosamine-6-phosphate [1] = variants of: B1; assay: self-cleavage kobs at 40 uM GlcN6P; higher = faster cleavage; RNA array
Outline: (§1)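 Glucosamine-6-phosphate, from 40 μM to 10 mM in HEPES/KCl/Mg(OAc)2 buffer, was flowed over sequenced MiSeq chips carrying barcoded ribozyme variants transcribed in situ by E. coli RNA polymerase. A hybridised Cy3 probe tracked the variants at 37 °C as tiles were imaged over ~14 h. kobs, kcat and KM were obtained by fitting normalised per-tile medians to exponential decays and then applying weighted Michaelis–Menten fits across concentrations.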

glucosamine-6-phosphate [2] = variants of: B1; assay: self-cleavage kobs at 160 uM GlcN6P; higher = faster cleavage; RNA array
Outline: as §1

glucosamine-6-phosphate [3] = variants of: B1; assay: self-cleavage kobs at 640 uM GlcN6P; higher = faster cleavage; RNA array
Outline: as §1

glucosamine-6-phosphate [4] = variants of: B1; assay: self-cleavage kobs at 2500 uM GlcN6P; higher = faster cleavage; RNA array
Outline: as §1

glucosamine-6-phosphate [5] = variants of: B1; assay: self-cleavage kobs at 10000 uM GlcN6P; higher = faster cleavage; RNA array
Outline: as §1

| Variant | self-cleavage kobs at 40 uM GlcN6P (glucosamine-6-phosphate [1]) [s⁻¹] | self-cleavage kobs at 160 uM GlcN6P (glucosamine-6-phosphate [2]) [s⁻¹] | self-cleavage kobs at 640 uM GlcN6P (glucosamine-6-phosphate [3]) [s⁻¹] | self-cleavage kobs at 2500 uM GlcN6P (glucosamine-6-phosphate [4]) [s⁻¹] | self-cleavage kobs at 10000 uM GlcN6P (glucosamine-6-phosphate [5]) [s⁻¹] |
| --- | --- | --- | --- | --- | --- |
| C11G A39U C50G | < 1e-05 | < 1e-05 | < 1e-05 | < 1e-05 | < 1e-05 |
| C10G A14C A36G U55A C71U | < 1e-05 |  |  |  |  |
| C11G G37U A53G | < 1e-05 |  |  |  |  |
| C10U A12G G43U | < 1e-05 |  | < 1e-05 | < 1e-05 | < 1e-05 |
| G9U G51A | < 1e-05 | < 1e-05 | < 1e-05 |  | < 1e-05 |
| C10A C11U A33C U49G C67G | < 1e-05 |  |  | < 1e-05 |  |
| C10A A33C | < 1e-05 | < 1e-05 | < 1e-05 | < 1e-05 | < 1e-05 |
| C10G G43U U47G C61A | < 1e-05 |  | < 1e-05 | < 1e-05 |  |
| C11G G59C | 5.21e-05 ± 2.3e-05 |  |  |  | 0.000764 ± 0.00016 |
| C10U G44A G51U | < 1e-05 |  |  |  |  |
| G9C G62U | < 1e-05 | < 1e-05 | < 1e-05 |  | < 1e-05 |
| C10G G29A U54G | < 1e-05 |  |  |  |  |
| G9U G43C U46G C67A | < 1e-05 |  |  |  |  |
| C10A A12U | < 1e-05 |  |  |  |  |
| C11G G66U | < 1e-05 |  |  | < 1e-05 |  |
| C11A A33U U45A | < 1e-05 |  | < 1e-05 | < 1e-05 |  |
| G9U A33G G38U G44U C58A | < 1e-05 |  |  |  |  |
| C10U A15G C67G | < 1e-05 |  | 6.46e-05 ± 2.3e-05 |  |  |
| C10G G43C U46A G60A G62C | < 1e-05 |  |  |  |  |

| Variant | self-cleavage kobs at 40 uM GlcN6P (glucosamine-6-phosphate [1]) [s⁻¹] | self-cleavage kobs at 160 uM GlcN6P (glucosamine-6-phosphate [2]) [s⁻¹] | self-cleavage kobs at 640 uM GlcN6P (glucosamine-6-phosphate [3]) [s⁻¹] | self-cleavage kobs at 2500 uM GlcN6P (glucosamine-6-phosphate [4]) [s⁻¹] | self-cleavage kobs at 10000 uM GlcN6P (glucosamine-6-phosphate [5]) [s⁻¹] |
| --- | --- | --- | --- | --- | --- |
| C10G C34U | < 1e-05 | < 1e-05 | < 1e-05 | < 1e-05 | < 1e-05 |
| C10U G40U C58A | < 1e-05 |  |  | < 1e-05 | < 1e-05 |
| C10U G29U U56G | < 1e-05 |  |  |  | < 1e-05 |
| C10A G59A | < 1e-05 |  | < 1e-05 |  |  |
| G9U A33U A52U U56G | < 1e-05 |  |  |  |  |
| C10A U31C | < 1e-05 |  | < 1e-05 |  | < 1e-05 |
| C10A U46G | < 1e-05 | < 1e-05 | < 1e-05 | < 1e-05 |  |
| C10A U47C U54C G66U | < 1e-05 |  |  |  | < 1e-05 |
| C10U A14G A15G G43A U45G A52G A64G | < 1e-05 | < 1e-05 |  |  | < 1e-05 |
| C10A C34G | < 1e-05 |  | < 1e-05 | < 1e-05 | < 1e-05 |
| C10G U47A G60U C61U | < 1e-05 |  |  |  |  |
| G9U U56G C71A | < 1e-05 |  |  |  |  |
| G9C U65A | < 1e-05 |  |  | < 1e-05 |  |
| C10U U31C C34U | < 1e-05 |  |  |  |  |
| C11A A48U | < 1e-05 | < 1e-05 | < 1e-05 | < 1e-05 |  |
| C10U G62A | < 1e-05 |  | < 1e-05 |  | < 1e-05 |
| C10U C34A C50G U65A | 8.28e-05 ± 3e-05 |  |  | 6.81e-05 ± 2.9e-05 | 0.000129 ± 2.8e-05 |
| C10A G37C C68U | < 1e-05 |  |  |  |  |
| G9U C16U G43U A53U | < 1e-05 |  |  |  | < 1e-05 |

| Variant | self-cleavage kobs at 40 uM GlcN6P (glucosamine-6-phosphate [1]) [s⁻¹] | self-cleavage kobs at 160 uM GlcN6P (glucosamine-6-phosphate [2]) [s⁻¹] | self-cleavage kobs at 640 uM GlcN6P (glucosamine-6-phosphate [3]) [s⁻¹] | self-cleavage kobs at 2500 uM GlcN6P (glucosamine-6-phosphate [4]) [s⁻¹] | self-cleavage kobs at 10000 uM GlcN6P (glucosamine-6-phosphate [5]) [s⁻¹] |
| --- | --- | --- | --- | --- | --- |
| C10U G43U U57G | < 1e-05 |  |  |  | < 1e-05 |
| C10G C61U C71A | < 1e-05 |  |  |  |  |
| C10U G40A C67A | < 1e-05 |  |  |  | < 1e-05 |
| C10G G29A G37A G38U G41C C71U | < 1e-05 |  |  |  | < 1e-05 |
| C11G A64U C67A | < 1e-05 |  |  |  | < 1e-05 |
| C11G G40A U45G | < 1e-05 |  | < 1e-05 | < 1e-05 | < 1e-05 |
| C11G C68A | < 1e-05 |  |  |  |  |
| C10U G38A G66U | < 1e-05 |  |  |  |  |
| C11G U69G C71U | 4.35e-05 ± 2.1e-05 |  |  |  |  |
| G9U C11A A36G | < 1e-05 |  |  |  |  |
| C10U A36C U56C | < 1e-05 |  |  |  |  |
| C10G C50G C58A C61A | 9.48e-05 ± 2.9e-05 |  |  |  | 5.26e-05 ± 2e-05 |
| G9C U45C U47A C67G | < 1e-05 |  |  |  |  |
| C10U U31A A53C U55G | < 1e-05 |  |  |  |  |
| G9C U45C | < 1e-05 |  |  | < 1e-05 |  |
| C10U C16U G38A A48G | < 1e-05 |  |  |  | < 1e-05 |
| C10U G63U C70U | < 1e-05 |  |  |  | < 1e-05 |
| C10U G66C | < 1e-05 |  | < 1e-05 |  | < 1e-05 |
